Data: the supplement of paper PMC9170038

Key:
[1] = system: K4 kissing-loop RNA reporter; assay: apparent KD of K4 kissing-loop reporter; higher = weaker reporter binding; details: Eterna round: R107;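 note: bound reporter read as fluorescence of individual clusters on recovered sequencing chips by microscopy, with normalized cluster intensities fitted with a binding model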
Method: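 RNA-MaP round R107: designed RNA switches with theophylline, tryptophan, arginine or FMN aptamers are transcribed on-chip within common flanks. They are titrated with a labelled K4 kissing-loop RNA reporter in RNA-MaP buffer (100 mM Tris pH 7.5, 80 mM KCl, 4 mM MgCl2), without ligand or with the indicated ligand. Median apparent KD per design.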

MS2 coat protein = assay: apparent KD of MS2 coat protein; designed switch direction (-1 OFF switch, 1 ON switch): -1; higher = weaker reporter binding
How it was run: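 Each step of the titration lasted 0.8–1.5 h at the lowest concentration and 10–20 min at the highest. The protein, SNAP-549-labelled MS2 coat protein, went from 0.7 or 1.5 nM doubling to 3 µM over RNA switches transcribed on Illumina chips by stalled E. coli RNA polymerase. Normalised cluster fluorescence was curve-fitted, and the per-design median over clusters is given as apparent KD.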

[2] = input ligand: theophylline 20 uM
[3] = input ligand: tryptophan 2.4 mM
[4] = input ligand: microRNA oligo, concentration not stated
[5] = Eterna round: R95, input ligand: microRNA oligo, concentration not stated

| Sequence | apparent KD of K4 kissing-loop reporter ([1]; input ligand: FMN 200 uM) [nM] | apparent KD of K4 kissing-loop reporter ([1]; input ligand: arginine 13.2 mM) [nM] | apparent KD of K4 kissing-loop reporter ([1]; input ligand: none) [nM] | apparent KD of K4 kissing-loop reporter [1, 2] [nM] | apparent KD of K4 kissing-loop reporter [1, 3] [nM] | apparent KD of MS2 coat protein (MS2 coat protein; input ligand: FMN 200 uM) [nM] | apparent KD of MS2 coat protein (MS2 coat protein; [4]) [nM] | apparent KD of MS2 coat protein (MS2 coat protein; input ligand: none) [nM] | apparent KD of MS2 coat protein (MS2 coat protein; Eterna round: R95, input ligand: FMN 200 uM) [nM] | apparent KD of MS2 coat protein (MS2 coat protein; [5]) [nM] | apparent KD of MS2 coat protein (MS2 coat protein; Eterna round: R95, input ligand: none) [nM] |
| --- | --- | --- | --- | --- | --- | --- | --- | --- | --- | --- | --- |
| AAGCAGUCACUCGAAAUCAUCAAAGAUGAACGAGGACCGGUACGGCCGCCACUCGGAGUGAUGUUCCGAAGACUGCAAAAUAAAA [MatMod 2 - Jieux - Exclusion - Tryptophan A] | 307 | 225 | 243 | 274 | 112 | – | – | – | – | – | – |
| AAGCAGUCACUCGAAUCCAUCGAAGAUGGGCGAGGACCGGUACGGCCGCCACUCGGAGUGAUGUUCCAAAGACUGCAAAAUAAAA | 451 | 378 | 306 | 550 | 136 | – | – | – | – | – | – |
| AAGCAGUCUCUUGUAACCAUCGAAGAUGGACGAGGACCGGUACGGCCGCCACUCGGAGUGAUGUUCCGAAGACUGCAAAAUAAAA [MatMod 15 - Jieux - Exclusion - Tryptophan A] | 713 | 712 | 828 | 1280 | 1350 | – | – | – | – | – | – |
| AAGCGUAAAAUGGCGGACAUACUGCUCCCACGAGGACCGGUACGGCCGCCACUCGAGUGCGGCAGUGAUGUUGCCGCCUUAGCGU [KL-XTryp-A20] | 92.9 | 81.3 | 92 | 80.3 | 81.9 | – | – | – | – | – | – |
| AAGGACUGCCAGGGAACACACUCAUUAUGGGAGGAUAUGUUAGCUGACAGAAGGCCCAGUGAUGUUGGGCCGGCGGGCUGUCAGG [Diargean] | 244 | 202 | 218 | 237 | 177 | – | – | – | – | – | – |
| AAGGCACGGCUUCGGCCGUGCCAAAUAGAUACCAGCAUAAUAAUAUGCCCUUGGCAGCUAAAUAGAAAUUCAGUGAUGUUGGAUA [SS Theo A Tesla 2.1] | 597 | 444 | 601 | 586 | 649 | – | – | – | – | – | – |
| AAGUAGAUCAAGAUCUAGUAUCUAGAUCAACGAGGACCGGUACGGCCGCCACUCGAAUAAUAGAGUGAUGUUCUAAGAUCUACAA [AK1.4 SS Tryptophan A] | 898 | 716 | 994 | 968 | 445 | – | – | – | – | – | – |
| AAGUCUCGUUAAUUCGUGGUUUCGAUCGAUACCAGUAGCGAGAGGUACCCUUGGCAGCGAAAUGAGUGAUGUUCAUGAAAGAAGA [KL-XTheoA11] | 101 | 124 | 111 | 153 | 87.1 | – | – | – | – | – | – |
| AAGUGAUGUUGUAGUGAUGUUGUGAUGUUGCAGGAUAUAUAGUGAUGUAGAAGGGUAAGUACUGAUGUUGUUAGUGAGUGAUGUU [wwzrrmullin] | 111 | 49.8 | 87.9 | 81.1 | 86.6 | – | – | – | – | – | – |
| AAGUGAUGUUGUAGUGAUGUUGUGAUGUUGCAGGAUAUAUAGUGAUGUAGAAGGGUAUGUACAGUUUUUUUUUUUGAGUGAUGAU [vvcvmullin] | 82.3 | 40.1 | 74.2 | 51.4 | 70.3 | – | – | – | – | – | – |
| AAGUGAUGUUGUAGUGAUGUUGUGAUGUUGCAGGAUAUAUAGUGAUGUAGAAGGGUAUGUACUUAUUUUUUUUUUGAGUUAUGUU [wzzwzrmullin] | 79.5 | 33.4 | 58 | 46.2 | 63.3 | – | – | – | – | – | – |
| AAGUGAUGUUGUAGUGAUGUUGUGAUGUUGCAGGAUAUAUAGUGAUGUAGAAGGGUAUGUGCAGUGUUCUUAUUUGAGUGUUGAU [zffdmullin] | 80.1 | 33.9 | 64.7 | 63.2 | 64 | – | – | – | – | – | – |
| AAGUGUGGUCCAGUGAUGUUGGAACCAGAUACCAGCGACAUAGUGCGCCCUUGGCAGCUGGCACACAUGCGCUGCACGACUAGAA [Riusveis] | 206 | 182 | 207 | 363 | 168 | – | – | – | – | – | – |
| AAUAAAAUCACGGCCGCCACUGAUAUCCAUAUUAGGAGUGAUGUUCCUAUGACUAUAUAAUUUAACAGGACCGGGUGAAUAUUUA [JR_SSTryptoB_Sub024] | 104 | 111 | 107 | 115 | 100 | – | – | – | – | – | – |
| UUUUUAGUGCUUUUUAAGUACAUGAGGAUCACCCAUGUACUUGUCUGGUGGUCCGGACAAGCUUUUUGCUCGUCUAG [Sensor v3 - turn-off variant 1 - 3] (Eterna round: R96, puzzle: Sensor v3, turn-off variant 1) | – | – | – | – | – | 35.6 | 27.4 | 35.8 | – | – | – |
| UUUUUAGUGCUUUUUAAGUACAUGAGGAUCACCCAUGUACUUGUCUGGUGGUCCGGACAAGCUUUUUGCUCGUCUAG [Sensor v3 - turn-off variant 1 - 3] (puzzle: Sensor v3, turn-off variant 1) | – | – | – | – | – | – | – | – | 32.4 | 29.4 | 36.4 |
| UUUUUAUAUGAAGGAUAUACUUAACAUGAGGAUCACCCAUGUGGUGUUGUGAGUGAGUGAGUUUAGUAGAAGGUCAAUUAGCUU [JMF's solution 100] (Eterna round: R96, puzzle: Exclusion NG 2) | – | – | – | – | – | 330 | 185 | 342 | – | – | – |
| UUUUUGUCAGGAUAUGACUAGAUGCACGUUAGUGCAUCUACUUAGAAGGGACAUGAGGAUCACCCAUGUAUUCC [Bring Us a Shrubbery-12] (puzzle: Exclusion 4) | – | – | – | – | – | – | – | – | – | 27.3 | – |
| UUUUUGUCAGGAUAUGAUUAGAUCUACUUCGGUAGAUCUAAUCAGAAGGGACAUGAGGAUCACCCAUGUAGUUU [Ex4 - 3 - 12] (puzzle: Exclusion 4) | – | – | – | – | – | – | – | – | – | 35.2 | – |
| UUUUUGUCAGGAUAUGAUUAGAUCUACUUCGGUAGAUCUAAUCAGAAGGGACAUGAGGAUCACCCAUGUAGUUU [Mod of Brourd - Jieux - Exclusion 4] (Eterna round: R97, puzzle: Exclusion 4) | – | – | – | – | – | 311 | – | 55.8 | – | – | – |
| UUUUUGUGAGGAUAUCAGUAGUAGAACAAUAGUACUACUACUGAGAAGGCACAUGAGGAUCACCCAUGUUCCUC [Fiskers Ex 4 Super stable 44 mod 9] (puzzle: Exclusion 4) | – | – | – | – | – | – | – | – | – | 52.6 | – |
| UUUUUGUGAGGAUAUCAGUAGUAGAACAAUAGUACUACUACUGAGAAGGCACAUGAGGAUCACCCAUGUUUCUC [Fiskers Ex 4 Super stable 44 mod 10] (puzzle: Exclusion 4) | – | – | – | – | – | – | – | – | – | 43.3 | – |
